According to patent publication US12365875B2, “Methods for generating skeletal muscle progenitor cells” (The Regents of the University of California, priority 2017, dated 2025):

Tested on: hPSC-SMPCs
Assay: Passaging and expansion of hPSC-SMPCs with added factors, gene expression
Assay type: cell-based, human
Procedure: At day 50, myogenic genes PAX7, MYF5, MYOD, MYOG, and MYH3 were measured by QPCR and expressed as fold-change versus day 35 of directed differentiation. […] Subsequently, IGF-1 was added to N2 media in all experiments (FIGS. 5-8, 10A-10D, 10F, 11, and 12A-12E). […] Subsequently, FGF2 was added to SkBM-2 media in experiments (FIGS. 5-8, 10A-10D, 10F, 11, and 12A-12E).
HiPSC-SMPC subpopulations enrich for PAX7 but activate and increase expression of MYOD after passaging. […] (FIG. 9A).

B1: WNT7A: Wnt family member added to SKBM2 expansion media (protein, UniProt O00755 32-349, looked up)
Protein Wnt-7a: LGASIICNKIPGLAPRQRAICQSRPDAIIVIGEGSQMGLDECQFQFRNGRWNCSALGERTVFGKELKVGSREAAFTYAIIAAGVAHAITAACTQGNLSDCGCDKEKQGQYHRDEGWKWGGCSADIRYGIGFAKVFVDAREIKQNARTLMNLHNNEAGRKILEENMKLECKCHGVSGSCTTKTCWTTLPQFRELGYVLKDKYNEAVHVEPVRASRNKRPTFLKIKKPLSYRKPMDTDLVYIEKSPNYCEEDPVTGSVGTQGRACNKTAPQASGCDLMCCGRGYNTHQYARVWQCNCKFHWCCYVKCNTCSERTEMYTCK
stemness factors HEYL and CJUN (passaged SMPCs in SKBM2): stabilize or increase stemness factors | PAX7 expression during expansion (passaged SMPCs, compared to SKBM2 alone): rescues PAX7 expression
